Assay results published in patent US9266964.
Numbering of substitutions follows the chain as printed.

B1: M197-F03 (Fab, V domains shown)
VH: EVQLLESGGGLVQPGGSLRLSCAASGFTFSIYSMFWVRQAPGKGLEWVSSIGPSGGVTHYADSVKGRFTISRDNSKNTLYLQMNSLRAEDTAVYYCAYRRTGIPRRDAFDIWGQGTMVTVSS
VL: DIQMTQSPSTLSASVGDRVTITCRASQSISSWLAWYQQKPGKAPNLLIYKASTLESGVPSRFSGSGSGTEFTLTISSLQPDDFATYYCQQYNTYWTFGQGTKVEIK
B2: M198-E02 (Fab, V domains shown)
VH: B1 VH with F35Y, S50Y, G52R, V57N, H59K
VL: B1 VL
B3: M198-A02 (Fab, V domains shown)
VH: B1 VH with I31R, F35I, G52W, P53S, V57A, H59E
VL: B1 VL
B4: M202-A01 (Fab, V domains shown)
VH: B1 VH with I31H, S33I, F35M, S50G, G52Y, P53S, V57I, H59V, T101I, I103V
VL: B1 VL
B5: M202-G03 (Fab, V domains shown)
VH: EVQLLESGGGLVQPGGSLRLSCAASGFTFSHYIMMWVRQAPGKGLEWVSGIYSSGGITVYADSVKGRFTISRDNSKNTLYLQMNSLRAEDTAVYYCAFRRTGVPRRDSFEIWGQGTMVTVSS
VL: B1 VL
B6: M195-B12 (Fab, V domains shown)
VH: B1 VH with I31K, S33W, F35Y, S50Y, G52R, V57Q, H59Y
VL: B1 VL
B7: M198-A07 (Fab, V domains shown)
VH: B1 VH with I31R, S33Q, F35H, S50W, G52S, V57I, H59G
VL: B1 VL
B8: M198-H02 (Fab, V domains shown)
VH: EVQLLESGGGLVQPGGSLRLSCAASGFTFSPYNMYWVRQAPGKGLEWVSWIVPGGVTKYADSVKGRFTISRDNSKNTLYLQMNSLRAEDTAVYYCAYRRTGIPRRDAFDIWGQGTMVTVSS
VL: B1 VL
B9: M200-H07 (Fab, V domains shown)
VH: B5 VH with F98Y, D107N, S108A, E110D, I111N
VL: B1 VL
B10: M201-H06 (Fab, V domains shown)
VH: B5 VH with F98Y, S108A, E110D
VL: B1 VL
B11: M202-F06 (Fab, V domains shown)
VH: B5 VH with F98Y, R106W, S108A, E110D
VL: B1 VL
B12: M195-C12 (Fab, V domains shown)
VH: B8 VH with P31M, N33Q, Y35F, W50S, V52S, V56G, K58Q
VL: B1 VL
B13: M202-H05 (Fab, V domains shown)
VH: B5 VH with S108V, E110D
VL: B1 VL
B14: M198-C05 (Fab, V domains shown)
VH: B1 VH with I31R, S33K, F35Y, S50V, V57A, H59F
VL: B1 VL
B15: M196-H03 (Fab, V domains shown)
VH: B8 VH with P31R, N33V, Y35W, W50S, V52S, G54S, V56D, K58H
VL: B1 VL
B16: M200-E11 (Fab, V domains shown)
VH: B5 VH with F98Y, S108A, E110D, I111N
VL: B1 VL
B17: M202-B04 (Fab, V domains shown)
VH: B5 VH with F98Y, T101S, S108D, E110D
VL: B1 VL
B18: M202-A04 (Fab, V domains shown)
VH: B5 VH with F98Y, T101K, V103I, S108D, E110D
VL: B1 VL
B19: M198-B12 (Fab, V domains shown)
VH: B1 VH with I31K, F35A, S50G, G52Y, V57R, H59L
VL: B1 VL
B20: M198-A09 (Fab, V domains shown)
VH: B1 VH with S33F, F35S, G52R, P53S, V57P, H59W
VL: B1 VL
B21: M198-C06 (Fab, V domains shown)
VH: B1 VH with I31Q, S33F, F35H, S50Y, G52Y, V57M, H59E
VL: B1 VL
B22: M198-C09 (Fab, V domains shown)
VH: B1 VH with S33T, F35Y, G52S, V57W, H59Y
VL: B1 VL
B23: M195-B02 (Fab, V domains shown)
VH: B1 VH with I31P, S33L, F35W, S50Y, V57P
VL: B1 VL
B24: M198-F12 (Fab, V domains shown)
VH: B1 VH with S33T, F35M, G52W, P53S, V57Q, H59K
VL: B1 VL
B25: M201-H08 (Fab, V domains shown)
VH: B5 VH with F98Y, S108A, F109L, E110D, I111N
VL: B1 VL
B26: M202-C02 (Fab, V domains shown)
VH: B5 VH with F98Y, T101P, S108A, E110D
VL: B1 VL
B27: M198-C03 (Fab, V domains shown)
VH: B1 VH with I31R, F35S, S50G, G52S, V57E, H59S
VL: B1 VL
B28: M198-A08 (Fab, V domains shown)
VH: B8 VH with P31W, N33M, Y35Q, W50R, V52S, G54S, V56G, K58T
VL: B1 VL
B29: M195-A02 (Fab, V domains shown)
VH: B1 VH with I31Q, S33M, F35M, S50G, G52S, P53S, V57H, H59D
VL: B1 VL
B30: M197-G10 (Fab, V domains shown)
VH: B1 VH with I31V, S33A, F35R, G52Y, V57K, H59W
VL: B1 VL
B31: M195-G02 (Fab, V domains shown)
VH: B1 VH with I31P, S33N, F35M, G52W, V57T, H59D
VL: B1 VL
B32: M196-D02 (Fab, V domains shown)
VH: B1 VH with I31V, F35H, S50V, V57I, H59L
VL: B1 VL
B33: M199-A11 (Fab, V domains shown)
VH: B5 VH with F98Y, T101R, V103I, S108A, E110D
VL: B1 VL
B34: M200-F01 (Fab, V domains shown)
VH: B5 VH with F98Y, T101M, V103I, D107N, S108A, E110D
VL: B1 VL
B35: M197-C12 (Fab, V domains shown)
VH: B1 VH with I31P, S33D, F35L, S50Y, G52V, P53S, V57L, H59K
VL: B1 VL
B36: M198-G03 (Fab, V domains shown)
VH: EVQLLESGGGLVQPGGSLRLSCAASGFTFSQYTMVWVRQAPGKGLEWVSWIYSSRANYADSVKGRFTISRDNSKNTLYLQMNSLRAEDTAVYYCAYRRTGIPRRDAFDIWGQGTMVTVSS
VL: B1 VL
B37: M199-B01 (Fab, V domains shown)
VH: B5 VH with V103I, S108A, E110D, I111N
VL: B1 VL
B38: M202-A08 (Fab, V domains shown)
VH: B5 VH with F98Y, V103I, R106W, S108A, E110D
VL: B1 VL
B39: M195-A12 (Fab, V domains shown)
VH: B1 VH with I31P, S33M, F35M, S50G, G52Y, V57Y, H59V
VL: B1 VL

Biological target: human plasma kallikrein (human, UniProt P03952 20-390; P03952 391-638)
Assay: cell-based or functional assay

Sequence of human plasma kallikrein (P03952 20-390, chain 1 of 2): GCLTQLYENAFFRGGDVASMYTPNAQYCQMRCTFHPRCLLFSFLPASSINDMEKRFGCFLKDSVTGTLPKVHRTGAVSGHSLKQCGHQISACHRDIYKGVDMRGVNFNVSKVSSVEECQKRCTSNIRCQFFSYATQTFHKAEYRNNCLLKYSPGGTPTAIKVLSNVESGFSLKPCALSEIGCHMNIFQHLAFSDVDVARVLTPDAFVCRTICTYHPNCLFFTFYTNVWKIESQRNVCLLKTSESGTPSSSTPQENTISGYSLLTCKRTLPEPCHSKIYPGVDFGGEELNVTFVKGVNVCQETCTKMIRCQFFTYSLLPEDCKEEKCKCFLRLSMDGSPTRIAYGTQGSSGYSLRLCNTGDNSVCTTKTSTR
Sequence of human plasma kallikrein (P03952 391-638, chain 2 of 2): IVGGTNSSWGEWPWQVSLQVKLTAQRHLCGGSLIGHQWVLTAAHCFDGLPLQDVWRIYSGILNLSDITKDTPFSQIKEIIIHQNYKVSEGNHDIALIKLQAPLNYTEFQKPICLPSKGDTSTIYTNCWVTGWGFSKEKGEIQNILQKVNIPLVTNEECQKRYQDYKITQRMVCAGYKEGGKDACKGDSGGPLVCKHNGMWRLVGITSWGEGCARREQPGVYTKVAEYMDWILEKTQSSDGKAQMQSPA

Binder | % inhibition at 10 nM
B1 | 90.7%
B2 | 90.3%
B3 | 89.1%
B4 | 88.9%
B5 | 88.3%
B6 | 87.7%
B7 | 86.1%
B8 | 85.8%
B9 | 85.4%
B10 | 84.6%
B11 | 84.2%
B12 | 84.2%
B13 | 84%
B14 | 83.9%
B15 | 83.9%
B16 | 83.2%
B17 | 81.9%
B18 | 81.2%
B19 | 80.7%
B20 | 77.3%

Binder | % inhibition at 10 nM
B21 | 76.5%
B22 | 75.4%
B23 | 75.1%
B24 | 74.6%
B25 | 74.5%
B26 | 74.3%
B27 | 72.4%
B28 | 72.3%
B29 | 71.3%
B30 | 67.6%
B31 | 67.5%
B32 | 66.2%
B33 | 65.4%
B34 | 65.1%
B35 | 56.4%
B36 | 53.8%
B37 | 53.4%
B38 | 52.9%
B39 | 51.7%
